Test results: article PMC5458393, “Crystal structure of N-acetylmannosamine kinase from Fusobacterium nucleatum” (Acta Crystallographica. Section F, Structural Biology …, 2017)

Target: the molecule itself
Assay: crystal structure; apo FnNanK at 14 mg/ml; sitting-drop vapour diffusion, 293 K; 0.2 M lithium sulfate, 0.1 M Tris-HCl pH 8.5, 30% PEG 4000; 2.23 A; one homodimer in the asymmetric unit

B1: Fusobacterium nucleatum N-acetylmannosamine kinase (enzyme, F. nucleatum)
chain: ITSLYKKAGFMNILAIDIGGTMIKYGLVSFDGKILSTDKIKTEASKGLNNILNKIDNIFKRYKENNPVGIAVSGTGQINGMIGKVIGGNPIIPNWIGTNLVKILEEKYNLPIVLENDVNCVALGEKWVGAGKDLSNFICLTIGTGIGGGILLNNQLFRGENFVAGEFGHILIKKGEFEQFASTTALIRLVKERTGKTLNGKEIFDLEKKEILEYQEIISEWIENLTDGLSSIIYCFNPANIILGGGVIEQGEPLINRIKNSLFKKIGPQFKEKLNITQAKLGNNAGMIGASYLLLEKINKR
notes: N-acetylmannosamine kinase (NanK; EC 2.7.1.60) of Fusobacterium nucleatum, synthetic gene; primers run from the start codon to the stop codon; The tag was not removed; also called FnNanK; F. nucleatum NanK; source: E. coli BL21(DE3), purified (HisTrap FF, Superdex 200 size-exclusion); not shown: His6, N-terminal, kept
stoichiometry N: 2
